The text below walks through data of publication PMC8523169, “Competitive binding of MatP and topoisomerase IV to the MukB hinge domain” (eLife, 2021).

Data set [1] addresses T1, full-length ParC, N-terminal 6xHis-tag (E. coli, UniProt P0AFI2 1-752).
T1 construct: ParC subunit of topoisomerase IV, E. coli, full length; also called His-ParC; ParC2; source: overexpressed, purified as previously published (Nolivos et al., 2016) with an added SEC step; not shown: His6, N-terminal, kept
T1 sequence (looked up): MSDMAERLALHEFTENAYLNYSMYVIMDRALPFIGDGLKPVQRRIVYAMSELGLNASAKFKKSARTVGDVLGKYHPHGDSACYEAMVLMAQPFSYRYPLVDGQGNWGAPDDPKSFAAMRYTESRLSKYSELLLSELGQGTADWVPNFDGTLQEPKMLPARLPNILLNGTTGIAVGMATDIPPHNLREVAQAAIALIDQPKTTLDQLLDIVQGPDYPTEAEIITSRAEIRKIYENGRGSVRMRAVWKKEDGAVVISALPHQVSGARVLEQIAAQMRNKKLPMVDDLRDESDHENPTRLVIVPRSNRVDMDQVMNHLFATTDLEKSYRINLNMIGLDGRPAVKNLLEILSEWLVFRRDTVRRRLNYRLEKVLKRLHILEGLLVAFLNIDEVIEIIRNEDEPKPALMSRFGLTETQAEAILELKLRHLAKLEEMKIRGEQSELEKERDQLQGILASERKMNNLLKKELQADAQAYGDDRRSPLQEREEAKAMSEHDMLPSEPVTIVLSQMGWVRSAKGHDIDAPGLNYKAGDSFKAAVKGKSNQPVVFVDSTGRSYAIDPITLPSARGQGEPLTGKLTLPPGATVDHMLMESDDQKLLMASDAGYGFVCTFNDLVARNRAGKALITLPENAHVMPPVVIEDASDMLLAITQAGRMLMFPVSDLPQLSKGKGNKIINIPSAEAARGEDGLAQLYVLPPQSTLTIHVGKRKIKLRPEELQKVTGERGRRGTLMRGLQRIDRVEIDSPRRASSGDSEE
Kind of data set: ITC; 100 µM LH titrated into 10 µM ParC at 25 °C; one-site model; three repeats. The following applies: both partners purified.

Data set [2] deals with T1, full-length ParC, N-terminal 6xHis-tag. Kind of data set: native MS; proteins buffer exchanged into 200 mM ammonium acetate pH 8.0, alone or mixed in different ratios (two or three components, with or without 50 bp DNA), 10 min on ice. The settings on record: both partners purified.
Data set [3] concerns the molecule itself. The description is as above.

B1: MukB long hinge (LH; amino acid residues 568–863) (domain or fragment, E. coli, UniProt P22523 568-863, looked up)
chain: SLSDSVSNAREERMALRQEQEQLQSRIQSLMQRAPVWLAAQNSLNQLSEQCGEEFTSSQDVTEYLQQLLEREREAIVERDEVGARKNAVDEEIERLSQPGGSEDQRLNALAERFGGVLLSEIYDDVSLEDAPYFSALYGPSRHAIVVPDLSQVTEHLEGLTDCPEDLYLIEGDPQSFDDSVFSVDELEKAVVVKIADRQWRYSRFPEVPLFGRAARESRIESLHAEREVLSERFATLSFDVQKTQRLHQAFSRFIGSHLAVAFESDPEAEIRQLNSRRVELERALSNHENDNQQQR
notes: MukB, E. coli, residues 568-863: dimeric globular hinge domain and 20% of the coiled-coil region; also called LH (MBP cleaved); LH2; source: NEBExpress cells (pMAL-c5X), purified (amylose, Factor Xa cleavage, HiTrap Q XL, SEC); not shown: MBP, N-terminal, cleaved
Regarding B1, in data set [1], the Kd was 690 nM, the dH is -7.48 kcal/mol and the “stoichiometry N” value stood at 0.84. Besides, the “stoichiometry N” value in data set [2] was 1 LH dimer per ParC dimer. Also, in data set [3], the “stoichiometry N” value was found to be 2.
